Data as given in PMC6644751 (2018).
Read-outs that look alike come from different tables or passages of the source.

T1: S100A11 (Homo sapiens, UniProt P31949)
T1 chain: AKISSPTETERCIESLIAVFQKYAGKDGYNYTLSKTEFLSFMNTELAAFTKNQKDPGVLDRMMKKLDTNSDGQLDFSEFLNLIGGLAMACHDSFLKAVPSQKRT

T2: S100B (Homo sapiens, UniProt P04271)
T2 chain: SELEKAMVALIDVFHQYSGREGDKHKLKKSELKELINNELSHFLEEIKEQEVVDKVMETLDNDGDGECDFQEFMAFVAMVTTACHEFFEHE


Legend:
Test in all cases: HSQC-NMR titration
[1] = biological target: T1, S100A11
[2] = biological target: T2, S100B
[3] = biological target: T2, S100B

Binder | Kd [1] [nM] | Kd [2] [nM] | Kd [3] [nM]
S100B (protein, Ca2+, monomers after urea denaturation/renaturation) SELEKAMVALIDVFHQYSGREGDKHKLKKSELKELINNELSHFLEEIKEQEVVDKVMETLDNDGDGECDFQEFMAFVAMVTTACHEFFEHE | ~2500 |  | 
S100A11 (protein, Ca2+, monomers after urea denaturation/renaturation) AKISSPTETERCIESLIAVFQKYAGKDGYNYTLSKTEFLSFMNTELAAFTKNQKDPGVLDRMMKKLDTNSDGQLDFSEFLNLIGGLAMACHDSFLKAVPSQKRT |  | ~2800 | ~2650
